# Assay results reported in the DeepSol protein solubility set.
# Assay: soluble on expression in E. coli; label from the status in PepcDB or PDB records
row,Sequence,soluble on expression in E. coli
1,MAHHHHHHMAAAPSATAPKHNYTLGTNASQLELYKYLKTVPPIPELRQAVTIKKYEEASVDDTLYPLIDEHQIIMVVGAFFGDEGKGKTVDAVARHPACTCVARVNSGENAGHTVFDDIGRKYVFNLAPSSLLTPNTRNYVSSECVMDPISFMEREIGQFIKSNMPYKDKLFVGNVFVVTPYHKLLDLLGSAPNSSTLKGMSPIHASKVTKRGIRLDHIFNDEGVLRARLAKDMDTYYGLLKVKGLTDKDVVRRCQEENADGVERVPGYVVDFARAENKIDYLVKLYTERVKNNKDFPRRCDVTHELRAALARGEKLLLEGPQSYWLSNAREKFWESTTSADTTAGGLLASAQFNFQRYKVLVINVHKAPGSSRVGIGANPSSFVPQDYYSAQDIKTLEALPKGGCVDFDKIQNFFYTKAFNTESKTFNGIYEPLEYEDATGKYNIGVAMSIASARHHGECGAVTKKPRVCGFFDCVLHFEVNAVQGPYLSISAVDRGDDYDRIGITIAYVYYDVGNKMVDANGRVYKNGDIIKAGDPVPCEMALYHCYPIVKVINGWKGAPIAASKRRPNEPLPKGVCEFIANVEFFTGAKVISIGNGPRGSDIIYLKQ,soluble
2,MAHHHHHHMTATPEMAEYCLRVIAQQISAPDDPSVPLPVIPKEDSACFVTLTTLPQERLRGCIGSLQPGDLKKDMRRLALAAAFQDSRFPKVKEEELPTLRCCFSLLHTFEPCAAWNDWEIGKHGLIADYDGYSATYLPSVAEEQGWDHRETLVSLLEKAGFEKPVTDHVLGKVRLTRYQVSKALKDYKDIIAS,not soluble
3,MSTAETAVAPVDYRTDPSQYKHWKLSFNGPVATLGIDIAEDGGIRDGYKLKLNSYDLGVDIELHDAIQRIRFEHPEVRTVVLTSLKDRVFCSGANIFMLGLSTHAWKVNFCKFTNETRNGLEDSSRHSGLKFLAAVNGACAGGGYELALACDEIYLVDDRSSSVSLPEVPLLGVLPGTGGLTRVTDKRKVRHDRADIFCTVVEGVRGERAKAWRLVDEVVKPNQFDQAIQARALELAAQSDRPAHAQGVPLTRIERTDREDGLTYKTLDVTIDRAKRIATFTAKAPQTEPPASIDAIVAAGANWWPLKFAREFDDAILSMRTNELAVGTWVFRTEGDARHLLAADASLMQHKDHWFVRETIGLLRRTLARIDVSSRSLFALIEPGSCFAGTFAELAFAADRTYMAALPANEDEEPAITLSEVNFGLYPMVTHQSRLARRFYEETEPLDAVRSRIGQAIKPVEAERLGLVTASPDDIDWADEIRIALEERAAMSPDALTGLEANLRFNGPETMETRIFGRLTAWQNWIFNRPNAVGEKGALKVYGKGSKAQFDVSRV,soluble
4,ARSTNTFNYATYHTLDEIYDFMDLLVAQHPELVSKLQIGRSYEGRPIYVLKFSTGGSNRPAIWIDLGIHSREWITQATGVWFAKKFTENYGQNPSFTAILDSMDIFLEIVTNPNGFAFTHSENRLWRKTRSVTSSSLCVGVDANRNWDAGFGKAGASSSPCSETYHGKYANSEVEVKSIVDFVKNHGNFKAFLSIHSYSQLLLYPYGYTTQSIPDKTELNQVAKSAVAALKSLYGTSYKYGSIITTIYQASGGSIDWSYNQGIKYSFTFELRDTGRYGFLLPASQIIPTAQETWLGVLTIMEHTVNN,soluble
5,MSLYRHIPLVALSLFSSLFLAACGNGTPPPAAARPAIVVQPQPAGEVSQAFPGEIRARHEPELAFRIGGKVIRRLVEVGERVKKDQPLAELDPQDVRLQLEAARAQVSAAEANLQTVRAEYRRYRTLLDRNLVSHSQFENIQNSYRAGEARLKQIRAEFNVADNQAGYAVLRSPQDGVIASRRVEVGQVVAAGQTVFSLAADGEREVLIGLPEHSFERFRIGQPVSVELWSQRDRRFAGHIRELSPAADPQSRTFAARVAFDDRATPAELGQSARVYVAAAEAVPLSVPLSALTAEAGQAFVWVVEPGSSTLRRQPVRTGPYAEDRVPVLEGLKAGDWVVATGVQVLREGQQVRPIDRANRTVKLAAKEEGHHHHHH,soluble
6,MITLWENRDKWEEDSNLHGLLLTIIKNKALNYLAHLQVRLRAEEEINSHSQRELDLRISTLEACEPDAIFDSEIQHIVQKALKRMPNQSRQIFILSRYQNTPNKKIAEQLGISVKSVEFHITKALKILRTELKDYLVSILF,not soluble
7,MTCLSRDWATAQRLVEWALASTRCECFNVDSNFMAGLCLVENPTKQHYSFEVRKQVVDRFNAGQSKMDLAREFGLSSDQLVSSWVRAWRAGGDEALRPKPKGRPKGSASSKPLTEEDRLRREVEKLRAENAYLKKLRDLRNQRRS,not soluble
8,MGSDKIHHHHHHMENILEIVNLNKSYNGIPALSNINLSVKAGEIHGIVGANGSGKTTLMNILFGNPIIHETGGYQGQIFFKGNRVNFKNCAEAIRQGIGMVHQEFALIPDMTVGENIKLGRENTHSLTDRLFGRKYSFIDWKQDYENAWQTLKRLGISVAVGIKIMDLSVNIRQFIEIAREIDRSDLKLLILDEPTAVLNKNDGLKLIEILKDMSNSEIGIIFISHRLEEVQYVCDKVSVLRDGKLVSQYAKGNIYVNDLAQDMIGHTINKAAAEKREIKNKPLITFKDFSVEMPGEEVKNLNLSVYKGEILGLTSLSGHGKLALGYGMMDMYPVDGEVYYENKKIVKMNARTNIIKGMYVLPDDRQGLGILADQSLESNIVFTGNQIKNMFIRNSAFNFLGFIDHHKTNLHVYKMMLDLDIKCTSIKQKVKELSGGNQQKVCIARALTVDPKLLFVAEPTRGIDISAKEKILNMLIEINRTRNTTIIIASSELDELKRVCDRIAVMVEGKIFKILSPDSPDVDFGLVLSGEEEVDCEKL,not soluble
9,QPDPPCGGRLNSKDAGYITSPGYPQDYPSHQNCEWIVYAPEPNQKIVLNFNPHFEIEKHDCKYDFIEIRDGDSESADLLGKHCGNIAPPTIISSGSMLYIKFTSDYARQGAGFSLRYEIFKTGSEDCSKNFTSPNGTIESPGFPEKYPHNLDCTFTILAKPKMEIILQFLIFDLEHDPLQVGEGDCKYDWLDIWDGIPHVGPLIGKYCGTKTPSELRSSTGILSLTFHTDMAVAKDGFSARYYLVHQEPLENFQCNVPLGMESGRIANEQISASSTYSDGRWTPQQSRLHGDDNGWTPNLDSNKEYLQVDLRFLTMLTAIATQGAISRETQNGYYVKSYKLEVSTNGEDWMVYRHGKNHKVFQANNDATEVVLNKLHAPLLTRFVRIRPQTWHSGIALRLELFGCRVTDAPCSNMLGMLSGLIADSQISASSTQEYLWSPSAARLVSSRSGWFPRIPQAQPGEEWLQVDLGTPKTVKGVIIQGARGGDSITAVEARAFVRKFKVSYSLNGKDWEYIQDPRTQQPKLFEGNMHYDTPDIRRFDPIPAQYVRVYPERWSPAGIGMRLEVLGCDWTHHHHHH,soluble
10,MNNALYNQIRIFQSIAREGNISAAARKLEITPPSVSNALRLLEEHIGHPLFVRTTRRIELTETGQQLLEQTAAAVETLEKSLEIIRDQNQEPSGAVRITLSRFAYLLILKPAMAAFCQQYPGIQLEISVYDGTVNIIEERFDLGIRFGDILEGGVVARPLMKPFREGLYASSAYLAEYGVPAMPADLHHHRLIGYRFITNNRILPLILNDHGEQLTVEMPGQLISNDIDVMADGIRHGLGIGRLFEPILQLQPDREQFIPVMEDYWKTYPPVYLYYPKNAGRTKRVKALIDFLIMYAADDAEKIGSSR,not soluble
11,MSPWQHYQKDLTRDGFSHDPAQEIAVKALQRVYEDLTAAEEPNSLFGKLFTSFGLTSAPAPTKGLYLWGGVGRGKTYLMDTFFDTLPGNQKLRAHFHRFMHQLHLDLDALKGTRDPLLVIAKQMAAKYRVICFDEFFVSDITDAMLLGTLFQALFKEGVVLVATSNIIPDDLYKNGLQRARFLPAIALINQHCEVLNVDSGIDYRLRTLEQAEIYHHPLDEQADTNLLRYFGQLAPEAEISTEAIEIEGRAISIRQQAQGVLLADFRALCDGPRSQRDYMELARIYHTVLVSGIEQMGAFLTGDDIARRFLAMVDEFYERNVKLIVSAQVPLEDIYADGLLSFEFRRCRSRLIEMQSHDYLKSEHLPLEHHHHHH,not soluble
12,MSLRDSAFFETGEKHFRTLCSSCHSAHQEIYGPMLGSISKKRKESWLIPFIRNSQEVIRSGDAYAKALFEKFDHQIMPPFEQLSDQDIKAILYYLEIESLQPQEYLNDAAIPPTSDSSVIRGKQEFLDHCSMCHFVHKESTFAPALGSVTKRHSREWLISFIQNSEKKINQGDAYAVHLFNQFDQHVMTNMDFLPIEEINAILDYIEFASTVDVAEGHHHHHH,not soluble
13,MSLTKAQDHDAAVLYGYFRSSASYRVRIALNLKNIIVAQRYVHLRNGEQNLEAFRWINPAGMVPYWSEGEFNLGQSLAIIEYLDETHPEPPLLPKDPKARAIVREIAYAVACDIHPIGNLRILKRLTELGVDEVDRARWSKEWVEQGFAAIEARLAQTPGPFAYGDRPTLADICIVPQIFNARRFDADLAPFERIRQIEAEAMKLDAFVAAEPGRQPDAEGHHHHHH,soluble
14,MKRLLLIIICTLGILSCGVPKEVTVPDKHLNYKDNIVLYNEKPYTGKVKLKKIAEKEQFEEGYISVKDGKLEGITDFKNDAAKTHFKFDVKSGKFNGEYILKHPLIGDFVMNFENGELKELKGKFPNDINQDLIFDKDGNVNGLIEQGGKQLDFQGGVAVKDTLKVKMFLDTETKQKLVTEVYEGDKLMAREENILLFTVKDFTEELLPVTGLQ,not soluble
15,MGSDKIHHHHHHMIRETRQIHVGNVAIGGGAPCSVQSMCNTDTRDVAATLSQVLSLSSAGCEIVRCAVPDMAAAEALGEIKRQSPIPVIADIHFDYRLALRVLEGGIDGLRLNPGNIGERWKVEEVVKAARERLVPIRIGVNAGSLEKELLEKYGHPTAEAMVESALGHVRILEDIGYDQIKISLKASDVMKTVEAYRLLAQKVDYPLHIGITEAGTIFSGTIKSSVGLGILLADGIGDTMRVSLTGDPVDEVRVGFEILKALGLRQRGINFVSCPTCGRCQINLIGVAQEVENRLAAIDTPLTVAVMGCVVNGPGEAREADVGIAGGKGEGLLFRHGEIVRKVPEAEMADALIAEVEQMAKEKTHS,not soluble
16,MSLAIGRILIIDDENINAETMMDTLEDVNYHVVLAANANQAKTIVEDQIFDLVMMDVWMPAQDGMSLLEEWTQSGFSTPIVMMSGHAEHQDVVKAIKLGAVDFLEKPLHDILPLVRKILSEQVLEKSEHTINGIEFNAPLKEARNIFEVQYFNHHLQENKHNIAKVAILAGLERTTLYRKLKDLGIDKEGHHHHHH,soluble
17,MGSDKIHHHHHHDMNKLDSDYSVYTDYDNSVHFNEFSTYYLPDSILVPDNSLKANYWKDENAQNIISAVAHEMEQKGYVRTEDKEKANVGIQLSYAQQRIQMTTGGWYGGWWDAGFWGPYWGGGWYYPYPVTYSYDTGTLIMEMVDLRQPADKSNQNKLPVIWHAYASGLLYGNSHFNMQLTLNAVNQAFAQSPYLSNKQ,not soluble
18,GLDTLDRDGDGSTADADCNDFAPTIHPGAAEATLDGVDSNCDGRDSGVAEVVETFKNPGTYSSPVINFKIASPPGPGTPIYGPPRDFSGYNKSYSLAIGKTSYYDPTTGTKWNDDTITPVSDGQDIWRGWTHTGKWSFFNGKAGDKITLSVQRDAQEASLKGAHPGFILFWRPEGGPLFWAGTQDLDEGQTALPADSDTVIGHVIVQHADWTLQGLPPKADHTAPAGVDTELYPMKPDSYTMYYVDSGYDADKYVASKKLIMHPTAFKGLALNDGTAGAFTKSITLPKTGYYMLYVANVLEVDDWSVDADGKLTTTGEVWEVPAKGCWVNITISKP,soluble
19,MGSDKIHHHHHHMEGRINPENWKDIFSDTLYIITDPNGVTAVIPEETAKTASSEPVKAAPADIKPTPVTTATPALPKIPSIPTPASATPNQQPAPVAAATAVLKPAGKYSNGILILMHVSYTMTPAQQEMLGKIVKAVQLDYNECGVLQVSAPVSLKEIETLKPRIVLSFGLPTDAFEPRMTKDLYSIQKHNSTIMLLADSLAKLETTVALKSNLWNAMKEMFGIK,not soluble
